Experimental findings from the supplement of paper PMC10567573 are described below.

To fix the notation:
B1: PTPN9 (parent)
chain: ILFSLPPALDWDSVHVPGPHAMTI
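Note: lentivirally expressed fusions sorted by FACS into six bins by GFP to DsRed ratio, PSI derived from sequencing read proportions per bin multiplied by bin number.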

The variants in this data set derive from B1. Briefly: protein stability index of a GFP-peptide fusion (GPS, HEK-293T) (PSI 1-6); higher = more stable. Conditions: c terminus: a fixed tail appended.
With ILFSLPPALDMDSVHVPGPHAMTI, the protein stability index stood at 2.73. The value for ILFSLPPALDGDSVHVPGPHAMTI was 2.23; that for ILFSLPPALDLDSVHVPGPHAMTI was 2.72. With ILFSLPPALDFDSVHVPGPHAMTI, the protein stability index amounted to 3.1. On to ILFSLPPALDSDSVHVPGPHAMTI, for which the protein stability index amounted to 1.9. Regarding ILFSLPPALDQDSVHVPGPHAMTI, the protein stability index is 2.27. For the variant ILFSLPPALDRDSVHVPGPHAMTI, the protein stability index turned out to be 2.11. Turning to ILFSLPPALDYDSVHVPGPHAMTI, the protein stability index came to 3.05.

As for ILFSLPPALDCDSVHVPGPHAMTI, the protein stability index was found to be 3.67.

For the variant ILFSLPPALDEDSVHVPGPHAMTI, the protein stability index came to 1.57.

Turning to ILFSLPPALDTDSVHVPGPHAMTI, the protein stability index is 2.23. The same measure for ILFSLPPALDIDSVHVPGPHAMTI: 3.5; for ILFSLPPALDPDSVHVPGPHAMTI: 2.41. ILFSLPPALDADSVHVPGPHAMTI: the protein stability index is 3.48.

As to ILFSLPPALDNDSVHVPGPHAMTI, the protein stability index worked out at 2.26. The same measure for ILFSLPPALDHDSVHVPGPHAMTI: 2; for ILFSLPPALDVDSVHVPGPHAMTI: 2.38. For the variant ILFSLPPALDDDSVHVPGPHAMTI, the protein stability index worked out at 1.75. The same measure for ILFSLPPALDWDSVHMPGPHAMTI: 3.21; for ILFSLPPALDWDSVHIPGPHAMTI: 3.19; for ILFSLPPALDWDSVHAPGPHAMTI: 1.93. In the case of ILFSLPPALDWDSVHHPGPHAMTI, the protein stability index turned out to be 2.2.

For the variant ILFSLPPALDWDSVHNPGPHAMTI, the protein stability index amounted to 1.74. The same measure for ILFSLPPALDWDSVHEPGPHAMTI: 1.38; for ILFSLPPALDWDSVHGPGPHAMTI: 1.99; for ILFSLPPALDWDSVHTPGPHAMTI: 3.33. The value for ILFSLPPALDWDSVHQPGPHAMTI was 1.81; that for ILFSLPPALDWDSVHLPGPHAMTI was 2.68; that for ILFSLPPALDWDSVHFPGPHAMTI was 2.42. The value for ILFSLPPALDWDSVHKPGPHAMTI was 2.54; that for ILFSLPPALDWDSVHRPGPHAMTI was 2.68; that for ILFSLPPALDWDSVHDPGPHAMTI was 2.27. On to ILFSLPPALDWDSVHSPGPHAMTI, for which the protein stability index stood at 3.71.

As to ILFSLPPALDWDSVHCPGPHAMTI, the protein stability index was 3.24. The same measure for ILFQLPPALDWDSVHVPGPHAMTI: 3.13; for ILFMLPPALDWDSVHVPGPHAMTI: 3.28.

Consider ILFKLPPALDWDSVHVPGPHAMTI, for which the protein stability index is 1.98. The value for ILFNLPPALDWDSVHVPGPHAMTI was 2.5; that for ILFRLPPALDWDSVHVPGPHAMTI was 2.6.

ILFHLPPALDWDSVHVPGPHAMTI: the protein stability index stood at 3.16. The same measure for ILFLLPPALDWDSVHVPGPHAMTI: 2.55; for ILFWLPPALDWDSVHVPGPHAMTI: 2.79; for ILFGLPPALDWDSVHVPGPHAMTI: 2.46. The same measure for ILFPLPPALDWDSVHVPGPHAMTI: 2.01. The same measure for ILFFLPPALDWDSVHVPGPHAMTI: 2.61; for ILFVLPPALDWDSVHVPGPHAMTI: 2.49. For the variant ILFILPPALDWDSVHVPGPHAMTI, the protein stability index is 3.06. The value for ILFTLPPALDWDSVHVPGPHAMTI was 2.17; that for ILFELPPALDWDSVHVPGPHAMTI was 1.75. As to ILFSDPPALDWDSVHVPGPHAMTI, the protein stability index turned out to be 2.43. On to ILFSTPPALDWDSVHVPGPHAMTI, for which the protein stability index turned out to be 2.99. The same measure for ILFSMPPALDWDSVHVPGPHAMTI: 2.3. The same measure for ILFSIPPALDWDSVHVPGPHAMTI: 1.33; for ILFSSPPALDWDSVHVPGPHAMTI: 2.25; for ILFSQPPALDWDSVHVPGPHAMTI: 1.47. The value for ILFSEPPALDWDSVHVPGPHAMTI was 1.47; that for ILFSNPPALDWDSVHVPGPHAMTI was 1.32; that for ILFSRPPALDWDSVHVPGPHAMTI was 2.93. As for ILFSHPPALDWDSVHVPGPHAMTI, the protein stability index came out at 1.76.

With ILFSVPPALDWDSVHVPGPHAMTI, the protein stability index was 3.76. Regarding ILFSCPPALDWDSVHVPGPHAMTI, the protein stability index worked out at 2.26. Turning to ILFSKPPALDWDSVHVPGPHAMTI, the protein stability index was found to be 2.25. The value for ILFSWPPALDWDSVHVPGPHAMTI was 2; that for ILFSFPPALDWDSVHVPGPHAMTI was 4.35. The same measure for ILFSLPPALDWDSSHVPGPHAMTI: 2.17; for ILFSLPPALDWDSEHVPGPHAMTI: 1.95; for ILFSLPPALDWDSDHVPGPHAMTI: 1.5. The value for ILFSLPPALDWDSYHVPGPHAMTI was 2.26; that for ILFSLPPALDWDSGHVPGPHAMTI was 2.1. Consider ILFSLPPALDWDSTHVPGPHAMTI, for which the protein stability index was 2.38.

On to ILFSLPPALDWDSMHVPGPHAMTI, for which the protein stability index worked out at 3.43. The value for ILFSLPPALDWDSHHVPGPHAMTI was 2.43; that for ILFSLPPALDWDSQHVPGPHAMTI was 2.57; that for ILFSLPPALDWDSKHVPGPHAMTI was 1.66. The same measure for ILFSLPPALDWDSRHVPGPHAMTI: 2.75. As for ILFSLPPALDWDSIHVPGPHAMTI, the protein stability index stood at 2.09. In the case of ILFSLPPALDWDSNHVPGPHAMTI, the protein stability index is 2.41. In the case of ILFSLPPALDWDSFHVPGPHAMTI, the protein stability index turned out to be 4.29. The same measure for ILFSLPPALDWDSLHVPGPHAMTI: 3.32; for ILFSLPPALDWDSCHVPGPHAMTI: 2.02; for ILFSLPPALDWDNVHVPGPHAMTI: 1.81. The value for ILFSLPPALDWDTVHVPGPHAMTI was 2.42; that for ILFSLPPALDWDAVHVPGPHAMTI was 1.88.

For ILFSLPPALDWDQVHVPGPHAMTI, the protein stability index was 2.06. The value for ILFSLPPALDWDVVHVPGPHAMTI was 2.03; that for ILFSLPPALDWDIVHVPGPHAMTI was 3.25. The value for ILFSLPPALDWDKVHVPGPHAMTI was 2.36; that for ILFSLPPALDWDMVHVPGPHAMTI was 2.1.

Take ILFSLPPALDWDPVHVPGPHAMTI: the protein stability index came to 2.4.

As to ILFSLPPALDWDDVHVPGPHAMTI, the protein stability index is 2.79. The same measure for ILFSLPPALDWDLVHVPGPHAMTI: 2.65. The same measure for ILFSLPPALDWDRVHVPGPHAMTI: 3.77. The same measure for ILFSLPPALDWDYVHVPGPHAMTI: 3.24; for ILFSLPPALDWDGVHVPGPHAMTI: 2.02.
